Data as given in PMC11624207, “Human PC4 supports telomere stability and viability in cells utilizing the alternative lengthening of telomeres mechanism”.

Target: PC4wt (His-tagged) (human, UniProt P53999 1-127)
Experiment: EMSA; EMSA: 50 mM HEPES pH 8, 1 mM DTT, 100 mM NaCl, 0.01% BSA, 2% glycerol; 20 min on ice then 10 min at 25 C; native 8% PAGE, 0.5x TBE, 4 C
Conditions: protein: recombinant, tags: N-terminal 6xHis, chain copies: 2, label: 5'-32P, single strand

Binder	binding result	further results
TTAGGGTTAGGGTTAGGGTTAGGGTTAGGG (ssDNA) [telomeric G-rich (TTAGGG)5]	–	binding result (G4-capable): binds
TTACGGTTACGGTTACGGTTACGGTTACGG (ssDNA) [mutant telomeric G-rich (TTACGG)5]	–	binding result (unable to form G4): binds
CCCTAACCCTAACCCTAACCCTAACCCTAA (ssDNA) [telomeric C-rich (CCCTAA)5]	binds	–
GGACTCTAGCGTGGATCCTTAAGCTAGAAT (ssDNA) [unrelated oligonucleotide]	binds	–
